Test [1] concerns the target T1, human ROR1 extracellular domain (ECD) protein (human), Q01973. The test is described as follows: ForteBio Octet, Wnt5a binding to ROR1 in the presence of antibody 601-3-16. On the technique in general: BLI is a label-free optical method that tracks binding on a fibre tip over time.
Test [2] concerns the target T1, human ROR1 extracellular domain (ECD) …. The experiment in a line: ForteBio Octet, Wnt5a binding to ROR1 in the presence of antibody 601-3-12.
Test [3] has the same target. The test is described as follows: ForteBio Octet, Wnt5a binding to ROR1 in the presence of the control mAb.
The target is the same in test [4]. The test is described as follows: ForteBio Octet, Wnt5a binding to ROR1 in the presence of antibody 601-3-2.

Consider 1 molecule from US20180009892A1.

T1 sequence (Q01973 30-406 limits assumed): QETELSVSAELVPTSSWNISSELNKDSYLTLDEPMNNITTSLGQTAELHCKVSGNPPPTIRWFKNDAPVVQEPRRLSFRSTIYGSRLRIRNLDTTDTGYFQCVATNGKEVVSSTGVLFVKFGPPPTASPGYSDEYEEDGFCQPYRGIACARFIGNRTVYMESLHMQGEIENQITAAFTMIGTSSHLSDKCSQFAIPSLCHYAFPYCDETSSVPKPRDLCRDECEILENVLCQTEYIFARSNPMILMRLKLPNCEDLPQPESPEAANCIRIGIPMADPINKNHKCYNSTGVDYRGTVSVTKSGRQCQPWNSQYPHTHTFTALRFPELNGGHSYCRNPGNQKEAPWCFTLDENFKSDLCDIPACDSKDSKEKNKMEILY

B1: Wnt5a, P41221 62-380 (ligand, UniProt P41221 62-380, looked up)
chain: IIGAQPLCSQLAGLSQGQKKLCHLYQDHMQYIGEGAKTGIKECQYQFRHRRWNCSTVDNTSVFGRVMQIGSRETAFTYAVSAAGVVNAMSRACREGELSTCGCSRAARPKDLPRDWLWGGCGDNIDYGYRFAKEFVDARERERIHAKGSYESARILMNLHNNEAGRRTVYNLADVACKCHGVSGSCSLKTCWLQLADFRKVGDALKEKYDSAAAMRLNSRGKLVQVNSRFNSPTTQDLVYIDPSPDYCVRNESTGSLGTQGRLCNKTSEGMDGCELMCCGRGYDQFKTVQTERCHCKFHWCCYVKCKKCTEIVDQFVCK
As to B1, the Pesudo ka in test [1] turned out to be 6700 M⁻¹ s⁻¹; in test [2], 5300 M⁻¹ s⁻¹; in test [3] it was 21000 M⁻¹ s⁻¹; in test [4], 13000 M⁻¹ s⁻¹.
